According to the supplement of paper PMC9170038:

Tested on: MS2 coat protein
Assay: apparent KD of MS2 coat protein; higher = weaker reporter binding
Conditions: Eterna round: R107
In short: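 Apparent KD stands for the median, per design, of fits to normalised cluster binding curves. The curves came from titrating on-chip-transcribed RNA switches on Illumina sequencing clusters with SNAP-549-labelled MS2 coat protein, twofold from 0.7 or 1.5 nM to 3 µM. Buffer was 100 mM Tris-HCl pH 7.5, 80 mM KCl, 4 mM MgCl2, without or with constant ligand.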

[1] = input ligand: theophylline 20 uM
[2] = input ligand: theophylline 2 mM
[3] = input ligand: tryptophan 2.4 mM

Sequence	apparent KD of MS2 coat protein (input ligand: arginine 13.2 mM) [nM]	apparent KD of MS2 coat protein (input ligand: none) [nM]	apparent KD of MS2 coat protein [1] [nM]	apparent KD of MS2 coat protein [2] [nM]	apparent KD of MS2 coat protein [3] [nM]
AGUCUUGAACGAAGGAGCGACGUACAUGAGGAUCACCCAUGUGGGAGCGAAAGCUCCUAACGUCAGGUAGGUCGCGUUCGAGACA [Omei Arginine B SS A v1]	17.7	16.7	21.9	16.2	18.6
GAAGGAGAGUGAUCCACUCCUUCUCUGGAAGGAGCGAGCGAAAGCUCAGGUAGGUCGCCAGAAACAUGAGGAUCACCCAUGUAAU [(A)''-(M)'-(A)'-(Arg1)-(Arg2)-(M1)-(M2)_Design7]	61.2	104	92.6	123	82.3
GUCCGCAGCCGAAGGAGCGCUAGAAGGUGACAUGAGGAUCACCCAUGUGUGUGAUGUGGCUAGCAGGUAGGUCGCGGAGCGGAUU [Exclusion - Arginine B (Freestyle 18)]	85.2	59.2	110	76.7	61.9
UUCUGGACCCGUGAUACCAGAGACAUGAGGAUCACCCAUGUACAUGAGGAUCACCCAUGUCUCCCUUGGCAGCACUGCAGGGAGC [Exclusion Theophylline B GF 14]	45.4		169		133
ACAAGUCCUCAUGAUACCAGCGAUGAGACAUAGUCUCAACAUGAGGAUCACCCAUGUAUUCGCCCUUGGCAGCAUACGGUUUUUG [Arleer]	85.1		373		517
UAUCCACAUGAGGAUCACCCAUGUAGGGAAGGAGCGGUGGUUUCACCAGGUAGGUCGCCUUACUGAGGAGAACCGGUGGAAUCGU [Exclusion - Arginine A (Freestyle 29)]	23.8	42.1	61.7	105	42.6
UCAUAUUAGAUAGAUGUAAGGUAUCAUGAUACCAGUAGAUAAUUAUACCCUUGGCAGCAUAACAUGAGGAUCACCCAUGUACAUG [Aa]	20.3		22		17.9
CGGGAACGAUAUGAUACCAGCCUGCGAAAGAAUGCUUAGUACAUGAGGAUCACCCAUGUAGGCCCUUGGCAGCAUCGACUCAAGU [theeternabot_exclusion_MS2_Theo_B_4]	13.1		18.1		13.2
CGCUGGCCACAUGAGGAUCACCCAUGUGAAGGAGCGGCGAAUAAGCCAGGUAGGUCGCGCAUGAAUAAAUCAUGUAGGUUGCGAA [XArg-A 11 V2]	16.9	13.4	14.9	17.9	14.5
UUCUACAUGAGGAUCACCCAUGUGGGUGAUACCAGCACUUUUUGGUGCCCUUGGCAGCACAUGAGAAUGCCGUAAAAUCGGCGAU [Ceanteis]	74.7		577		503
ACUUGGUGGUGAUCCCUGCCAAGAGGUGAUACCAGCAUCGAAAGAUGCCCUUGGCAGCACCAACAUGAGGAUCACCCAUGUAAUA [(MT)''-(M)'-(T')-(Theo)-(Ms2)_Design1/22_6]	62.6		185		214
GGACAACAUGAGGAUCACCCAUGUCCUGAUACCAGUCAGCGCAGUGACCCUUGGCAGCAGACGGAUACGAAAUAACUGAGAGAUA [theeternabot_sameState_MS2_Theo_A_44]	29.2		65		62
UAUAACAUGAGGAUCACCCAUGUAAGUGAUACCAGAUAAAUAAUAGUCCCUUGGCAGCAUAUUGGGAAAGUGUAUAAUAUAUAUU [Same State - Theophylline A (Freestyle 2)]	50.8		66.1		48.1
UUUCAGUGGACGGCCGCCACUGAAGUCGAUACAAUCAUGUAGAACAUGAGGAUCACCCAUGUAGUCAGGACCGGGUCCAAUGACU [Tryp B SS t3]	15.9	22.9	21.3	22.8	20.5
UGGUACAUGGCGGCCGCCACUUCACGUAAAAUAAAAGCGUGAGGAUCACCCAUGCAAUAAGUUGGGAGGACCGGGUCAUGUACCU	311	287	633	387	244
UGUAUGUGAUCUGAUACCAGCUAGCGGAAACGCAAAAGCUUGAGGAUCACCCAAGUGGAAAGCCCUUGGCAGCAGAUCGCAUACU [Denovo 1 #StaticStem #AlternativeMS2]	17.5	15.1	14.7	9.89	17.4
